According to patent US20220218785A1 (ALPINE IMMUNE SCIENCES, published 2022):

T1: human ICOS (human, UniProt Q9Y6W8 21-199)
T1 construct: whole, on cells
T1 sequence (looked up): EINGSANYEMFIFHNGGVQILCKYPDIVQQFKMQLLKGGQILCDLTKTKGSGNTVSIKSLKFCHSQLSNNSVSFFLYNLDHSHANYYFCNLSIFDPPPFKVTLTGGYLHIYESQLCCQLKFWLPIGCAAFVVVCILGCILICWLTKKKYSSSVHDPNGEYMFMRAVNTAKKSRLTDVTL


Experiments:
human CD28 = target: T2, human CD28 (human, UniProt P10747 19-220); experiment: flow cytometry, cells with human CD28; protein from CHO
T2 construct: whole, on cells

human ICOS = target: T1, human ICOS; experiment: flow cytometry, cells with human ICOS; protein from CHO
human CTLA-4 = target: T3, human CTLA-4 (human, UniProt P16410 36-223); experiment: flow cytometry, cells with human CTLA-4; protein from CHO
T3 construct: whole, on cells
T3 sequence (P16410 36-223): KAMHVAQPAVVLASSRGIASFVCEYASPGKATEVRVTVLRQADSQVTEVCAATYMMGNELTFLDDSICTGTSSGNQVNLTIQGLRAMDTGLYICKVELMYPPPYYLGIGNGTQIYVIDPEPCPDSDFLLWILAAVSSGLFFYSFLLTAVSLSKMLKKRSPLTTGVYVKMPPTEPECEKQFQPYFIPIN

| Binder | MFI (ΔWT) (human CD28) [fold vs WT] | MFI (ΔWT) (human ICOS) [fold vs WT] | MFI (ΔWT) (human CTLA-4) [fold vs WT] | MFI (human CD28) [MFI] | MFI (human ICOS) [MFI] | MFI (human CTLA-4) [MFI] |
| --- | --- | --- | --- | --- | --- | --- |
| ICOSL ECD Truncation #7 with N52H/N57Y/Q100R/F172S and F83S, Fc fusion (Fc fusion, Made in CHO cells; F83S is an additional mutation found later in the clone) DTQEKEVRAMVGSDVELSCACPEGSRFDLNDVYVYWQTSESKTVVTYHIPQHSSLEYVDSRYRNRALMSPAGMLRGDFSLRLSNVTPQDEQKFHCLVLSRSLGFQEVLSVEVTLHVAANFSVPVVSAPHSPSQDELTFTCTSINGYPRPNVYWINKTDNSLLDQALQNDTVSLNMRGLYDVVSVLRIARTPSVNIGCCIENGGGGSGGGGSEPKSSDKTHTCPPCPAPEAEGAPSVFLFPPKPKDTLMISRTPEVTCVVVDVSHEDPEVKFNWYVDGVEVHNAKTKPREEQYNSTYRVVSVLTVLHQDWLNGKEYKCKVSNKALPAPIEKTISKAKGQPREPQVYTLPPSREEMTKNQVSLTCLVKGFYPSDIAVEWESNGQPENNYKTTPPVLDSDGSFFLYSKLTVDKSRWQQGNVFSCSVMHEALHNHYTQKSLSLSPG | 51.1 | 1.1 | 27.3 |  |  |  |
| ICOSL ECD Truncation #7 with N52H/N57Y/Q100R/C198R and E90K/E111G (Fc fusion, not shown: a dimerising Fc or GST, Made in CHO cells) DTQEKEVRAMVGSDVELSCACPEGSRFDLNDVYVYWQTSESKTVVTYHIPQHSSLEYVDSRYRNRALMSPAGMLRGDFSLRLFNVTPQDKQKFHCLVLSRSLGFQEVLSVGVTLHVAANFSVPVVSAPHSPSQDELTFTCTSINGYPRPNVYWINKTDNSLLDQALQNDTVFLNMRGLYDVVSVLRIARTPSVNIGCRIEN | 22.5 | 0.5 | 11 | 38900 | 54600 | 83700 |
| ICOSL ECD Truncation #4 with N52H/N57Y/Q100R/F172S and E200G, Fc fusion (Fc fusion, Made in CHO cells; E200G is an additional mutation found later in the clone) DTQEKEVRAMVGSDVELSCACPEGSRFDLNDVYVYWQTSESKTVVTYHIPQHSSLEYVDSRYRNRALMSPAGMLRGDFSLRLFNVTPQDEQKFHCLVLSRSLGFQEVLSVEVTLHVAANFSVPVVSAPHSPSQDELTFTCTSINGYPRPNVYWINKTDNSLLDQALQNDTVSLNMRGLYDVVSVLRIARTPSVNIGCCIGNVLLQQNGGGGSGGGGSEPKSSDKTHTCPPCPAPEAEGAPSVFLFPPKPKDTLMISRTPEVTCVVVDVSHEDPEVKFNWYVDGVEVHNAKTKPREEQYNSTYRVVSVLTVLHQDWLNGKEYKCKVSNKALPAPIEKTISKAKGQPREPQVYTLPPSREEMTKNQVSLTCLVKGFYPSDIAVEWESNGQPENNYKTTPPVLDSDGSFFLYSKLTVDKSRWQQGNVFSCSVMHEALHNHYTQKSLSLSPG | 46.6 | 1.1 | 42.3 |  |  |  |
| ICOSL IgV with N52H/N57Y/Q100R and H48R/S54P, Fc fusion (Fc fusion, Made in CHO cells. '554P' is read as S54P; also called ICOSL IgV with N52H/N57Y/Q100R and H48R/554P) DTQEKEVRAMVGSDVELSCACPEGSRFDLNDVYVYWQTSESKTVVTYRIPQHSPLEYVDSRYRNRALMSPAGMLRGDFSLRLFNVTPQDEQKFHCLVLSRSLGFQEVLSVEVTLHVAANFSVGGGGSGGGGSEPKSSDKTHTCPPCPAPEAEGAPSVFLFPPKPKDTLMISRTPEVTCVVVDVSHEDPEVKFNWYVDGVEVHNAKTKPREEQYNSTYRVVSVLTVLHQDWLNGKEYKCKVSNKALPAPIEKTISKAKGQPREPQVYTLPPSREEMTKNQVSLTCLVKGFYPSDIAVEWESNGQPENNYKTTPPVLDSDGSFFLYSKLTVDKSRWQQGNVFSCSVMHEALHNHYTQKSLSLSPG | 43.6 | 1.4 | 42.4 |  |  |  |
| ICOSL ECD Truncation #6 with N52H/N57Y/Q100R/F172S, Fc fusion (Fc fusion, Made in CHO cells) DTQEKEVRAMVGSDVELSCACPEGSRFDLNDVYVYWQTSESKTVVTYHIPQHSSLEYVDSRYRNRALMSPAGMLRGDFSLRLFNVTPQDEQKFHCLVLSRSLGFQEVLSVEVTLHVAANFSVPVVSAPHSPSQDELTFTCTSINGYPRPNVYWINKTDNSLLDQALQNDTVSLNMRGLYDVVSVLRIARTPSVNIGCCIENVLLGGGGSGGGGSEPKSSDKTHTCPPCPAPEAEGAPSVFLFPPKPKDTLMISRTPEVTCVVVDVSHEDPEVKFNWYVDGVEVHNAKTKPREEQYNSTYRVVSVLTVLHQDWLNGKEYKCKVSNKALPAPIEKTISKAKGQPREPQVYTLPPSREEMTKNQVSLTCLVKGFYPSDIAVEWESNGQPENNYKTTPPVLDSDGSFFLYSKLTVDKSRWQQGNVFSCSVMHEALHNHYTQKSLSLSPG | 52.8 | 0.9 | 31.6 |  |  |  |
| ICOSL ECD with N52H/N57Y/Q100R/C198R (Table 18) (Fc fusion, not shown: a dimerising Fc or GST, Made in CHO cells; May be the same construct as m37) DTQEKEVRAMVGSDVELSCACPEGSRFDLNDVYVYWQTSESKTVVTYHIPQHSSLEYVDSRYRNRALMSPAGMLRGDFSLRLFNVTPQDEQKFHCLVLSRSLGFQEVLSVEVTLHVAANFSVPVVSAPHSPSQDELTFTCTSINGYPRPNVYWINKTDNSLLDQALQNDTVFLNMRGLYDVVSVLRIARTPSVNIGCRIENVLLQQNLTVGSQTGNDIGERDKITENPVSTGEKNAAT | 34.3 | 1.4 | 17.5 | 59200 | 139000 | 133000 |

Second part, the binder after the results:

| MFI (ΔWT) (human CD28) [fold vs WT] | MFI (ΔWT) (human ICOS) [fold vs WT] | MFI (ΔWT) (human CTLA-4) [fold vs WT] | MFI (human CD28) [MFI] | MFI (human ICOS) [MFI] | MFI (human CTLA-4) [MFI] | Binder |
| --- | --- | --- | --- | --- | --- | --- |
| 49 | 0.9 | 31.1 | 84600 | 91400 | 236000 | ICOSL ECD Truncation #6 with N52H/N57Y/Q100R/C198R (Fc fusion, not shown: a dimerising Fc or GST, Made in CHO cells) DTQEKEVRAMVGSDVELSCACPEGSRFDLNDVYVYWQTSESKTVVTYHIPQHSSLEYVDSRYRNRALMSPAGMLRGDFSLRLFNVTPQDEQKFHCLVLSRSLGFQEVLSVEVTLHVAANFSVPVVSAPHSPSQDELTFTCTSINGYPRPNVYWINKTDNSLLDQALQNDTVFLNMRGLYDVVSVLRIARTPSVNIGCRIENVLL |
| 62.4 | 1.3 | 40.7 |  |  |  | ICOSL ECD Truncation #8 with N207G/L208G and N52H/N57Y/Q100R/F172S, Fc fusion (Fc fusion, Made in CHO cells) DTQEKEVRAMVGSDVELSCACPEGSRFDLNDVYVYWQTSESKTVVTYHIPQHSSLEYVDSRYRNRALMSPAGMLRGDFSLRLFNVTPQDEQKFHCLVLSRSLGFQEVLSVEVTLHVAANFSVPVVSAPHSPSQDELTFTCTSINGYPRPNVYWINKTDNSLLDQALQNDTVSLNMRGLYDVVSVLRIARTPSVNIGCCIENVLLQQGGTGGGGSGGGGSEPKSSDKTHTCPPCPAPEAEGAPSVFLFPPKPKDTLMISRTPEVTCVVVDVSHEDPEVKFNWYVDGVEVHNAKTKPREEQYNSTYRVVSVLTVLHQDWLNGKEYKCKVSNKALPAPIEKTISKAKGQPREPQVYTLPPSREEMTKNQVSLTCLVKGFYPSDIAVEWESNGQPENNYKTTPPVLDSDGSFFLYSKLTVDKSRWQQGNVFSCSVMHEALHNHYTQKSLSLSPG |
| 50 | 1.1 | 28.5 | 86300 | 110000 | 216000 | ICOSL ECD Truncation #5 with N52H/N57Y/Q100R/C198R (Fc fusion, not shown: a dimerising Fc or GST, Made in CHO cells) DTQEKEVRAMVGSDVELSCACPEGSRFDLNDVYVYWQTSESKTVVTYHIPQHSSLEYVDSRYRNRALMSPAGMLRGDFSLRLFNVTPQDEQKFHCLVLSRSLGFQEVLSVEVTLHVAANFSVPVVSAPHSPSQDELTFTCTSINGYPRPNVYWINKTDNSLLDQALQNDTVFLNMRGLYDVVSVLRIARTPSVNIGCRIENVLLQQ |
